Where a chain is given by its changes, count along the chain named. In names and notes the source's numbering stands.
Legend:
BSA = target: T1, BSA (bovine, UniProt P02769 25-607); assay: ELISA on coated protein
T1 construct: also called bovine serum albumin

[1] = target: T2, recombinant human fibronectin fragment FN789 (human, UniProt P02751 1173-1539); assay: ELISA on coated protein
T2 construct: the entry may be a nucleic acid

[2] = target: T3, recombinant human fibronectin fragment FN7B8 (human, UniProt P02751 1173-1448); assay: ELISA: FN7B8 coated, mutein titrated, detected via Strep-tag II
T3 construct: no separate number is printed for the protein, so the entry may be a nucleic acid
T3 sequence (P02751 other isoform, or with tags, fused parts or gaps limits assumed): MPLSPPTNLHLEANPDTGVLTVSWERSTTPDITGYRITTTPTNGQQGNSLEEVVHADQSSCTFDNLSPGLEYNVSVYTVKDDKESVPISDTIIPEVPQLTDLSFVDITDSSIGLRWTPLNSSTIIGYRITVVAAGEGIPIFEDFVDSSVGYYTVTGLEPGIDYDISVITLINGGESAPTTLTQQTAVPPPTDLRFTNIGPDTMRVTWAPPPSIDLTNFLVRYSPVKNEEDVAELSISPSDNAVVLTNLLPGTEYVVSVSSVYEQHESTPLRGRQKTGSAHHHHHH

[3] = target: T4, recombinant fibronectin single domain ED-B (human); assay: SPR (BIAcore X), ED-B amine-coupled (about 180 RU), mutein as analyte
T4 construct: the entry may be a nucleic acid; also called extra domain-B; extra-domain B
T4 sequence (chain, as listed by the source limits assumed): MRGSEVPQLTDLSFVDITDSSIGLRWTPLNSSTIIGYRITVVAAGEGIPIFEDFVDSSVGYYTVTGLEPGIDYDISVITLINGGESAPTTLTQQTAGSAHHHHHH
Method: (§1) FIG. 27 depicts the kinetic real time analysis of Lcn2 variants N7A (A), N7E (B), N9B (C) and N10D (D) measured on a Biacore X instrument. The single fibronectin domain ED-B was coupled via amine chemistry to a CMD 200 m sensor chip (ΔRU=180) and the purified Lcn2 variants were applied at varying concentrations. The measured signals are shown as traces together with the curve fits.
(§2) Real time interaction analysis of Lcn2 muteins was performed on a BIAcore X instrument using HBS/ET (20 mM Hepes, pH 7.5, 150 mM NaCl, 1 mM EDTA containing 0.005% (v/v) Tween 20) as running buffer. 100 μg/ml solution of recombinant ED-B in 10 mM Na-acetate, pH 4.0 was immobilized on a CMD 200 m Sensorchip using standard amine coupling chemistry, resulting in a ligand density of about 180 resonance units (RU). The purified Lcn2 mutein was applied at a flow rate of 25 μl/min at concentrations of 2.5 up to 160 nM. The sensorgrams were corrected by subtraction of the corresponding signals measured for the control channel, which had been activated and blocked with ethanolamine. […] In the case of N10D the heterogeneous analyte competing reaction model was used for data fitting, resulting in two sets of kinetic constants.

[4] = target: T3, recombinant human fibronectin fragment …; assay: SPR (BIAcore X), FN7B8 amine-coupled (about 500 RU), mutein as analyte
Source text: (§3) FIG. 13 depicts the kinetic real time analysis of Lcn2 mutein N9B measured on a Biacore instrument. FN7B8 was coupled via amine chemistry to a CMD 200 m sensor chip (ΔRU=500) and the purified Lcn2 mutein was applied at varying concentrations. The measured signal is shown as a grey line whereas the curve fit is depicted as a black line in each case.
as §3, with “14” for “13”, “N7E” for “N9B”
Real time analysis of Lcn2 muteins was performed on a BIAcore X system (BIAcore, Uppsala, Sweden) using HBS/ET (20 mM Hepes, pH 7.5, 150 mM NaCl, 1 mM EDTA containing 0.005% (v/v) Tween 20) as running buffer. 200 μg/ml solution of recombinant FN7B8 in 10 mM Na-acetate, pH 4.0 was immobilized on a CMD 200 m Sensorchip (XanTec bioanalytics, Duesseldorf, Germany) using standard amine coupling chemistry (Biacore, Uppsala, Sweden), resulting in a ligand density of about 500 resonance units (RU). The purified Lcn2 mutein was applied at a flow rate of 25 μl/min at concentrations of 2.5 up to 160 nM. The sensorgrams were corrected by subtraction of the corresponding signals measured for the control channel, which had been activated and blocked with ethanolamine.

[5] = target: T4, recombinant fibronectin single domain …; assay: SPR (BIAcore X), ED-B immobilised by amine coupling, Lcn2 mutein injected at 0 to 80 nM, 1:1 model
Method: as §1
as §2, with “The purified Lcn2 mutein was applied at a flow rate of 25 μl/min at concentrations of 2.5 up to 160 nM.” left out

ovalbumin = target: T5, ovalbumin (UniProt P01012 2-386); assay: capture ELISA
T5 sequence (looked up): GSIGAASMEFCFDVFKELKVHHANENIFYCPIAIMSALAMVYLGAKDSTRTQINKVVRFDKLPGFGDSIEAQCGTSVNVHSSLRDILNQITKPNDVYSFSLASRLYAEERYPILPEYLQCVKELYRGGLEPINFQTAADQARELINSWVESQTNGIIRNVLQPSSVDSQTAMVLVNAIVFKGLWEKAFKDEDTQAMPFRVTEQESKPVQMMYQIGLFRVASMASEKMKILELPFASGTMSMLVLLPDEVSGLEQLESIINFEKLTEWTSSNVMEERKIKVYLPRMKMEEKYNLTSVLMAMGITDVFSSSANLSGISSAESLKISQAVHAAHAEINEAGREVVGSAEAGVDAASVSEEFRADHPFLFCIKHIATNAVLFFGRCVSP

MBP-Aβ40 fusion protein [6] = target: T6, MBP-Aβ40 fusion protein; assay: SPR (Biacore X), MBP-Aβ40 amine-coupled (1316 RU), mutein as analyte
T6 construct: the entry may be a nucleic acid; Biotin-labelled in the capture ELISA, unlabeled in the direct ELISA and SPR; also called MBP-Abeta40
Method: (§4) FIG. 20 depicts the kinetic real time analysis of Lcn2 muteins H1GA (A) and H1GV (B) measured on a Biacore X instrument at a flow rate of 20 μl/min. The MBP-Aβ40 fusion protein was coupled via amine chemistry to a CMD 2001 chip (ΔRU=1316) and each of the purified Lcn2 muteins was applied in a series at varying concentrations. The measured signal is shown as a grey line while the curve fit is depicted as a black line in each case.
(§5) Real time analysis of the interaction between Lcn2 muteins H1GA or H1GV and MBP-Aβ40 (SEQ ID NO: 33) was performed on a Biacore X system using PBS/T (4 mM KH₂PO₄, 16 mM Na₂HPO₄, 115 mM NaCl, pH 7.4 containing 0.005% (v/v) Tween 20) as running buffer. A 15 μg/mL solution of MBP-Aβ40 from Example 2 in 10 mM Na-acetate, pH 4.5 was immobilized onto a CMD 200I chip (Xantec, Düsseldorf, Germany) using standard amine coupling chemistry, resulting in a ligand density of 1316 resonance units (RU). The purified Lcn2 muteins H1GA and H1GV from Example 20 were applied in concentrations ranging from 4 nM to 128 nM at a flow rate of 20 μL/min. The data were double-referenced by subtraction of the corresponding signals measured for the control channel, which had been activated and blocked with ethanolamine, as well as subtraction of the measured signals for an average of buffer injections.

[7] = target: T7, biotinylated Aβ40 peptide (human, C-terminal biotin group attached via a lysine spacer); assay: capture ELISA: mutein captured via Strep-tag II, biotinylated Aβ40 titrated
T7 construct: Synthetic peptide (Peptide Speciality Laboratory) with a C-terminal biotin on a lysine spacer; used in the capture ELISAs
T7 sequence (peptide, as listed by the source): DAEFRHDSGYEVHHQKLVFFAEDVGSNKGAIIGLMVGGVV
Method: (§6) FIG. 19 depicts the binding activity of the Lcn2 muteins H1GA, H1GV, and H1-G1 in capture ELISAs with the biotinylated Aβ targets Aβ40 (A) and Trx-Aβ28 (B). StrepMAB-Immo was immobilized at 10 μg/ml on microtitre plates and employed for capturing of 1 μM Lcn2 muteins via the Strep-tag H. Binding of the biotinylated targets, applied in a dilution series, was then detected by incubation with ExtrAvidin/AP and a subsequent chromogenic reaction with pNPP. […] The data were fitted to a monovalent binding model.

Trx-Aβ28 fusion protein = target: T8, Trx-Aβ28 fusion protein (Escherichia coli (strain K12), UniProt P0AA25 1-76 = thioredoxin, Biotin-labelled through an NHS ester (2:1) in the capture and competitive ELISAs; unlabeled in the direct ELISA and as competitor.); assay: capture ELISA: mutein captured via Strep-tag II, biotinylated Trx-Aβ28 titrated
T8 construct: the entry may be a nucleic acid; also called TrxAbeta28H6
Method: as §6

MBP-Aβ40 fusion protein [8] = target: T6, MBP-Aβ40 fusion protein; assay: SPR (Biacore X, FIG. 20), MBP-Aβ40 immobilised, H1GV injected; the table marks the row '* dissociation time not sufficiently long'
Method: as §4, §5

[9] = target: T9, Aβ40 peptide, non-labeled (human); assay: SPR (Biacore T100), Aβ40 amine-coupled on CM5 (325 RU), mutein as analyte
T9 construct: Non-labeled synthetic peptide (W. M. Keck Laboratory); also called Abeta40; amyloid beta peptide
T9 sequence (peptide, as listed by the source): as above
Method: (§7) FIG. 21 depicts the kinetic real time analysis of the Lcn2 mutein H1GA measured on a Biacore T100 instrument with immobilized Aβ40 using an extended dissociation time for a trace measured at high concentration. The target peptide Aβ40 was coupled via amine chemistry onto the Biacore CM5 chip (ΔRU=325), and the purified Lcn2 mutein H1GA was applied at a flow rate of 30 μl/min. For exact determination of the low koff rate, dissociation was performed for 7200 s at the highest concentration tested. kon rates were determined using the dilution series of the Lcn2 mutein H1GA with both association and dissociation times of 300 s.
(§8) Real time analysis of the interaction between the Lcn2 mutein H1GA and Aβ40 (SEQ ID NO: 29) was performed on a Biacore T100 system (Biacore, Uppsala, Sweden) using PBS/P (4 mM KH₂PO₄, 16 mM Na₂HPO₄, 115 mM NaCl, pH 7.4 containing 0.005% (v/v) Surfactant P20) as running buffer. […] For exact determination of the low koff rate the highest concentration was analysed using a dissociation time of 7200 s. The data were double-referenced as in Example 21. kₒₙ and koff for the binding reaction were determined from the entire data set using Biacore T100 Evaluation Software V2.0.3 for data processing and kinetic fitting. […]

[10] = target: T9, Aβ40 peptide, non-labeled; assay: SPR (Biacore T100), Aβ40 amine-coupled on CM5 (325 RU), dissociation 7200 s
Method: as §7, §8

MBP-Aβ40 fusion protein [11] = target: T6, MBP-Aβ40 fusion protein; assay: SPR (Biacore X, FIG. 20), MBP-Aβ40 immobilised, H1GA injected; the table marks the row '* dissociation time not sufficiently long'
Method: as §4, §5

T1 sequence (P02769 25-607 limits assumed): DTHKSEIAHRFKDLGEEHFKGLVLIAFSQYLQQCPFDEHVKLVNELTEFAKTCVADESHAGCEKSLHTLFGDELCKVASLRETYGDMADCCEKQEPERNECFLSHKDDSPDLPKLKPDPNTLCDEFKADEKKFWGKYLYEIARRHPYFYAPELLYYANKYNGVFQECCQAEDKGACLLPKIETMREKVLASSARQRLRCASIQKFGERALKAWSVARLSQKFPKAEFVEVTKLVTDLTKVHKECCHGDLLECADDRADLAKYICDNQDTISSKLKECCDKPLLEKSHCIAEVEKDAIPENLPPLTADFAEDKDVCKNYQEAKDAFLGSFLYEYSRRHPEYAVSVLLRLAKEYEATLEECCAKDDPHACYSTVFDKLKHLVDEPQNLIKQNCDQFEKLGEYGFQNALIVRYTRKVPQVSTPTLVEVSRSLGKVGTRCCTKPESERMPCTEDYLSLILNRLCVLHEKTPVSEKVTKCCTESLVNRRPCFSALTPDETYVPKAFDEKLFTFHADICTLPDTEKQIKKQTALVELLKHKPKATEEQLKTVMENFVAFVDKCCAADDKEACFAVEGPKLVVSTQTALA
T2 sequence (P02751 other isoform, or with tags, fused parts or gaps limits assumed): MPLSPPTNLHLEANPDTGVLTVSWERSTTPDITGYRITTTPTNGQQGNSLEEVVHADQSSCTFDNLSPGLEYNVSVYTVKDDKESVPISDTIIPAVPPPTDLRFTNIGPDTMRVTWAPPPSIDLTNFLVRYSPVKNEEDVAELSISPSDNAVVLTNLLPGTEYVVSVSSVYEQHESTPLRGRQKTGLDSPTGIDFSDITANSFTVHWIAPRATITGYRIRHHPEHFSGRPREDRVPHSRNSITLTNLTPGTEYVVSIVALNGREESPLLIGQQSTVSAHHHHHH

B1: Lcn2 mutein N9B (designed binder)
chain: QDSTSDLIPAPPLSKVPLQQNFQDNQFHGKWYVVGRAGNMRLREDKDPAKMVATIYELKEDKSYNVTKVMFQRKKCKYMINTFVPGSQPGEFTLGAIKSPPGPTSTLVRVVSTNYNQHAMVFFKHVFQNREYFHITLYGRTKELTSELKENFIRFSKSLGLPENHIVFPVPIDQCIDG
B1 was tested, and the binding result (BSA) was “no binding”, the binding result [1] was “no binding” and the Kd [2] was 40.1 nM. The Kd [3] was 5.26 nM, the koff [3] was 0.00762 s⁻¹ and the kon [3] was 1.45e+06 M⁻¹ s⁻¹. It also gave a Kd [4] of 36 nM, a koff [4] of 0.075 s⁻¹ and a kon [4] of 2.1e+06 M⁻¹ s⁻¹. For the same binder, the Kd [5] was 5.3 nM.

B2: Lcn2 mutein H1GV (designed binder)
chain: QDSTSDLIPAPPLSKVPLQQNFQDNQFHGKWYVVGVAGNVLLREDKDPLKMYATIYELKEDKSYNVTSVGFDDKKCLYKIRTFVPGSQPGEFTLGRIKSEPGGTSWLVRVVSTNYNQHAMVFFKEVAQNRETFNITLYGRTKELTSELKENFIRFSKSLGLPENHIVFPVPIDQCIDG
notes: H1-G1 with Cys36 replaced by Val
For B2, the binding result (ovalbumin) was “no binding”, the Kd (MBP-Aβ40 fusion protein [6]) was 1.06 nM and the koff (MBP-Aβ40 fusion protein [6]) was 7.26e-05 s⁻¹. For the same binder, the kon (MBP-Aβ40 fusion protein [6]) was 68400 M⁻¹ s⁻¹, the Kd [7] was 4.9 nM and the Kd (Trx-Aβ28 fusion protein) was 4.2 nM. The Kd (MBP-Aβ40 fusion protein [8]) was 1.1 nM.

B3: Lcn2 mutein H1GA (designed binder)
chain: B2 chain with V36A
notes: H1-G1 with Cys36 replaced by Ala
For B3, the binding result (ovalbumin) was “no binding”, the Kd (MBP-Aβ40 fusion protein [6]) was 0.476 nM and the koff (MBP-Aβ40 fusion protein [6]) was 2.75e-05 s⁻¹. The kon (MBP-Aβ40 fusion protein [6]) was 57700 M⁻¹ s⁻¹, the Kd [9] was 0.095 nM and the kon [9] was 125000 M⁻¹ s⁻¹. The koff [10] was 1.18e-05 s⁻¹, the Kd [7] was 4.2 nM and the Kd (Trx-Aβ28 fusion protein) was 3.8 nM. It also gave a Kd (MBP-Aβ40 fusion protein [11]) of 0.48 nM.

— US20130079286A1 (Pieris, published 2013)
